First the molecules themselves.
B2: FLAG-tagged CDIN1 (F-CDIN1) (natural protein, UniProt Q9Y2V0 1-281, looked up)
chain: MILTKAQYDEIAQCLVSVPPTRQSLRKLKQRFPSQSQATLLSIFSQEYQKHIKRTHAKHHTSEAIESYYQRYLNGVVKNGAAPVLLDLANEVDYAPSLMARLILERFLQEHEETPPSKSIINSMLRDPSQIPDGVLANQVYQCIVNDCCYGPLVDCIKHAIGHEHEVLLRDLLLEKNLSFLDEDQLRAKGYDKTPDFILQVPVAVEGHIIHWIESKASFGDECSHHAYLHDQFWSYWNRFGPGLVIYWYGFIQELDCNRERGILLKACFPTNIVTLCHSIA
notes: CDIN1 (C15orf41) cDNA synthesized by IDT, in pCDNA3.1; source: Expi293, transiently transfected, in lysate and purified in complexes (anti-FLAG, Strep-Tactin); not shown: 3xFLAG, N-terminal, kept
B3: Strep-tagged CDAN1 (ST-CDAN1), wildtype (natural protein, human)
chain: MAAVLESLLREEVSVAAVVRWIARSTQGSEDNAGEAAALSSLRALRKEFVPFLLNFLREQSSRVLPQGPPTPAKTPGASAALPGRPGGPPRGSRGARSQLFPPTEAQSTAAEAPLARRGGRRRGPGPARERGGRGLEEGVSGESLPGAGGRRLRGSGSPSRPSLTLSDPPNLSNLEEFPPVGSVPPGPTGTKPSRRINPTPVSEERSLSKPKTCFTSPPISCVPSSQPSALDTSPWGLGLPPGCRSLQEEREMLRKERSKQLQQSPTPTCPTPELGSPLPSRTGSLTDEPADPARVSSRQRLELVALVYSSCIAENLVPNLFLELFFVFQLLTARRMVTAKDSDPELSPAVLDSLESPLFQSIHDCVFFAVQVLECHFQVLSNLDKGTLKLLAENERLLCFSPALQGRLRAAYEGSVAKVSLVMPPSTQAVSFQPETDNRANFSSDRAFHTFKKQRDVFYEVLREWEDHHEEPGWDFEKGLGSRIRAMMGQLSAACSHSHFVRLFQKQLLQMCQSPGGAGGTVLGEAPDVLSMLGADKLGRLWRLQERLMAPQSSGGPCPPPTFPGCQGFFRDFILSASSFQFNQHLMDSLSLKIQELNGLALPQHEPNDEDGESDVDWQGERKQFAVVLLSLRLLAKFLGFVAFLPYRGPEPPPTGELQDSILALRSQVPPVLDVRTLLQRGLQARRAVLTVPWLVEFLSFADHVVPLLEYYRDIFTLLLRLHRSLVLSQESEGKMCFLNKLLLLAVLGWLFQIPTVPEDLFFLEEGPSYAFEVDTVAPEHGLDNAPVVDQQLLYTCCPYIGELRKLLASWVSGSSGRSGGFMRKITPTTTTSLGAQPSQTSQGLQAQLAQAFFHNQPPSLRRTVEFVAERIGSNCVKHIKATLVADLVRQAESLLQEQLVTQGEEGGDPAQLLEILCSQLCPHGAQALALGREFCQRKSPGAVRALLPEETPAAVLSSAENIAVGLATEKACAWLSANITALIRREVKAAVSRTLRAQGPEPAARGERRGCSRACEHHAPLPSHLISEIKDVLSLAVGPRDPDEGVSPEHLEQLLGQLGQTLRCRQFLCPPAEQHLAKCSVELASLLVADQIPILGPPAQYRLERGQARRLLHMLLSLWKEDFQGPVPLQLLLSPRNVGLLADTRPREWDLLLFLLRELVEKGLMGRMEIEACLGSLHQAQWPGDFAEELATLSNLFLAEPHLPEPQLRACELVQPNRGTVLAQS
notes: Codanin-1 (CDAN1) cDNA from Horizon Discovery/Dharmacon; a point mutation of the clone (S421F) was corrected; in pCDNA3.1; Dimer by SEC-MALS and cryo-EM; Same plasmid used in Expi293 (purifications) and in Flp-In 293 T-REx (pulldowns); kept as one molecule; also called WT CDAN1; Strep-CDAN1; source: Expi293, transiently transfected, in lysate and purified in complexes (anti-FLAG, Strep-Tactin); …

Series [1] has as its target B2. Briefly: cryo-EM structure; purified CDAN1 C-term:CDIN1 (C:C) complex crosslinked with BS3, 0.78 mg/mL; single-particle cryo-EM, ~6 Å reconstruction. To be noted: both partners purified.
Series [2] has as its target B3. In words: SEC-MALS; 200 μg of each purified complex at 5 μM on an SRT SEC-300 column with DAWN HELEOS II detector; dn/dc 0.185. To be noted: both partners purified. On the technique in general: Size exclusion chromatography separates by hydrodynamic size, large species first.
Series [3] deals with the molecule itself. The series is described as above.

Where “and” joins values, the source holds several entries; their conditions need not be identical. Identical values can stand only once.

B1: CDAN1 MA3 domain (ST-CDAN1C, residues 1008-1227) (domain or fragment, human, UniProt Q8IWY9 1008-1227, looked up)
chain: GERRGCSRACEHHAPLPSHLISEIKDVLSLAVGPRDPDEGVSPEHLEQLLGQLGQTLRCRQFLCPPAEQHLAKCSVELASLLVADQIPILGPPAQYRLERGQARRLLHMLLSLWKEDFQGPVPLQLLLSPRNVGLLADTRPREWDLLLFLLRELVEKGLMGRMEIEACLGSLHQAQWPGDFAEELATLSNLFLAEPHLPEPQLRACELVQPNRGTVLAQS
notes: Codanin-1 (CDAN1), MA3 domain, residues 1008-1227; also called Strep-CDAN1C; CDAN1 C-term; source: Expi293, transiently transfected, purified in complex with F-CDIN1 (anti-FLAG, Strep-Tactin); not shown: 3xStrep-II-TEV, N-terminal, kept
On to B1, for which the binding result in series [1] was “binds”.

With B2, the “stoichiometry N” value in series [2] is 2 copies of CDIN1 per two copies of CDAN1.

For B3, in series [3], the “stoichiometry N” value was 2 copies of CDAN1 in the C:A complex and 2 copies of CDAN1 in the C:C:A complex.

These data come from doi:10.1101/2024.08.08.607204, “Mechanism of ASF1 Inhibition by CDAN1” (bioRxiv, 2024).
